The target in one test is CD155 (PVR) (UniProt P15151). The experiment in a line: cell-based or functional assay.
A further test addresses CD112 (Nectin-2, PVRL2) (UniProt Q92692). In words: cell-based or functional assay.

2 substances from patent US20170037133A1 can be followed below.

Chain of UniProt P15151 (P15151 21-417 limits assumed): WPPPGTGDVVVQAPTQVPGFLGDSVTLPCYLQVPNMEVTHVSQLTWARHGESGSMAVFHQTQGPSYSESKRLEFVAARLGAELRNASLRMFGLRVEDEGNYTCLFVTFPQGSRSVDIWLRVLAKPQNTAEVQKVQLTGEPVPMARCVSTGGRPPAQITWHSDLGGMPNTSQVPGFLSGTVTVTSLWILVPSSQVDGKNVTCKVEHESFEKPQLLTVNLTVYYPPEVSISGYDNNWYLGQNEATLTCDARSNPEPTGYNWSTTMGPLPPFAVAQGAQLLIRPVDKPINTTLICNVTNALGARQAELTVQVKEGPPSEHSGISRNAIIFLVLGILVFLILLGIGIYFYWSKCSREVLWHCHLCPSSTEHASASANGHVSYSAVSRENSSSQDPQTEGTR
Chain of UniProt Q92692 (Q92692 32-538 limits assumed): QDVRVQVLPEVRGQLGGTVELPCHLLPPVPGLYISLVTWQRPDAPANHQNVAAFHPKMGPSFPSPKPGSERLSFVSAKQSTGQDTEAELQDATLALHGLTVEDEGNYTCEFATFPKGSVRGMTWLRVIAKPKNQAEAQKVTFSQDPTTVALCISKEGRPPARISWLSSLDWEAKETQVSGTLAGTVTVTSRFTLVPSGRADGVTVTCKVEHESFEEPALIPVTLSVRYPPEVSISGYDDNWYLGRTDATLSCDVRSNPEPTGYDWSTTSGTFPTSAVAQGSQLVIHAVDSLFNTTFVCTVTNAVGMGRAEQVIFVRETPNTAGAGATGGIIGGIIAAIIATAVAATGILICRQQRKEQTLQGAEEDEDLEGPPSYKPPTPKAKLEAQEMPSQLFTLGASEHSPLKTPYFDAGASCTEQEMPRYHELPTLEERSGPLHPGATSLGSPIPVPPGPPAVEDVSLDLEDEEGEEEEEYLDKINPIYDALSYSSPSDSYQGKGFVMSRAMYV

As for mouse anti-PVR clone D171 (antibody), in the test with CD155 (PVR), the MV4-11 cell lysis in the presence of 0.1 ng/ml AMG 330 came to 49.7% and the cell kill of MV4-11 (7-AAD positive target cells, 24 h co-culture with PBMCs, no AMG 330) is 33%.
As for mouse anti-PVRL2 clone L14 (antibody), in the test with CD112 (Nectin-2, PVRL2), the MV4-11 cell lysis in the presence of 0.1 ng/ml AMG 330 was 57.9% and the cell kill of MV4-11 (7-AAD positive target cells, 24 h co-culture with PBMCs, no AMG 330) amounted to 40.4%.
